Results: patent publication US20110229482A1, “Method of inhibiting infection by HCV, other flaviviridae viruses, and any other virus that complexes to low density lipoprotein or to very low density lipoprotein in blood by preventing viral entry into a cell” (priority 2000, published 2011)

Target: LDL receptor (human), on cells (human) (UniProt P01130)
Experiment: cell-based or functional assay

## HDL fraction of HCV-infected serum (HCV-HDL)
  Endocytosis of 5 µg DiI-labeled fraction, mean fluorescence (log scale) (mean fluorescence (log scale)): 1.88

## LDL fraction of HCV-infected serum (HCV-LDL)
  Endocytosis of 5 µg DiI-labeled fraction, mean fluorescence (log scale) (mean fluorescence (log scale)): 9.98

## VLDL fraction of HCV-infected serum (HCV-VLDL)
  Endocytosis of 5 µg DiI-labeled fraction, mean fluorescence (log scale) (mean fluorescence (log scale)): 8.49

## high density lipoprotein (HDL) from normal serum
  competitive inhibition of endocytosis of HCV by HepG2, G4 and E11 cells: > 200 µg/mL

## low density lipoprotein (LDL) from normal serum, P04114 1-4563
  Uptake of LDL by cultured cells, mean fluorescence (G4, lipoprotein deficient medium, DiI-LDL) (mean fluorescence): 16
  Uptake of LDL by cultured cells, mean fluorescence (G4, routine medium, DiI-LDL) (mean fluorescence): 4
  Uptake of LDL by cultured cells, mean fluorescence (HepG2, routine medium, DiI-LDL) (mean fluorescence): 16
